The record followed here is doi:10.1101/068965.

This assay addresses EGFP-LOV2-OPTN_((412-520)) (Avena sativa | not stated) (UniProt Q96CV9). In words: SEC.

Regarding “EGFP-LOV2-OPTN_((412-520)) (from UniProt Q96CV9 412-520) (designed binder)”, the stoichiometry N (usually the number of molecules, sites or subunits per partner or assembly) is 2.
